Usually MIC stands for the least concentration at which growth counts as inhibited.

Residue numbers refer to the chain shown, from its start. Names and notes keep the numbering of the source.

Data set [1] has as its system E. coli (ATCC 8739) / C. albicans (ATCC 10231). Kind of data set: MIC of permeabilizer co-dosants with and without Tgase variant. The conditions noted are these: for Co-Dosant MIC, with Tgase variant: with Tgase variant A3 (SEQ ID NO: 4): 12.5 ppm with polymyxin B, 200 ppm with chlorhexidine and with the mixture. It is filed as cell-based. How it is done:
E. coli (ATCC 8739) and C. albicans (ATCC 10231) were acquired from the American Type Culture Collection (ATCC) (Manassas, VA) and maintained as −80° C. frozen glycerol stocks.
The following day, the cell density of the saturated cultures was calculated using OD600 and cultures were diluted to 104 to 10^6 CFU/mL in sterile Mueller Hinton broth to generate the inoculum, and 100 μL of the inoculum was combined with 100 μL of serially diluted Tgase variant A3 (SEQ ID NO: 4) at a range of 0.0001-0.05 weight percent. Growth curves were measured by OD600 on a BioTek® Synergy Plate Reader. All test conditions were performed in triplicate. MIC was determined to be […] (0.005% w/v) against E. coli for the enzyme described in SEQ ID NO: 4 using OD600.
For MIC determination of yeast cultures, C. albicans (ATCC 10231) was grown overnight (24 hours) in Sabouraud Dextrose broth at 30° C. The following day, the cell density of the saturated cultures was calculated using OD600 and cultures were diluted to 104 to 10^6 CFU/mL in sterile Sabouraud Dextrose broth media to generate the inoculum, and 100 μL of the inoculum was combined with 100 μL of serially diluted Tgase variant at a range of 0.0001-0.05 weight percent. The cultures were grown overnight at 30° C. and growth curves were measured by OD600 on a BioTek® Synergy Plate Reader. All test conditions were performed in triplicate. MIC was determined to be […] (0.005% w/v) against C. albicans for the enzyme described in SEQ ID NO: 4 using OD600.
Aseptilase activities of Tgase variant A3 (SEQ ID NO: 4) in combination with each of the three permeabilizer co-dosants, polymyxin B, chlorhexidine, and a 10000:4000:1 mixture by weight of sodium hexametaphosphate, phytic acid and chlorhexidine, were tested. […] The experiments were performed as described in Example 5. The co-dosants were added into Tgase variant A3 (SEQ ID NO: 4) solutions at concentrations of 0.125 g/L, 0.05 g/L, and 350 mM, respectively. The results are shown in Table 12 with Tgase concentrations reported within the table at the best MIC.

In data set [2] the test system is N,N-dimethylcasein. Kind of data set: Productivity: total product formed after 24 hours (protein functionalization assay). It is filed as biochemical. The conditions noted are these: improvement relative to wild-type Tgase (SEQ ID NO: 2); total product after 24 h. Also noted: key: −: a reduction in activity; +: an improvement between 1.2 and 2-fold; ++: an improvement between 2 and 5-fold; +++: an improvement greater than 5-fold. The procedure:
(§1) Enzymatic “productivity” is a measure of product formation or substrate disappearance over time, at a prescribed temperature under specified reaction conditions. It is the measure both the durability and reaction yield of the enzyme variant. In this instance, productivity is defined as total product formed over 24-hours at a constant substrate concentration when the enzyme is the rate limiting factor. The time is defined as 24 hours, which represents approaching or surpassing burnout, denaturation, or self-reaction of the enzyme variant. In other words, variants with higher productivity deliver a higher product yield in 24-hours than variants with lower productivity produce in the same period of time. “Rate” refers to the initial rate for an enzymatic reaction, at a prescribed temperature under specified reaction conditions. The enzyme produces product at an initial rate that is approximately linear for a short period after the start of the reaction. When concentrations of enzyme and substrate are the same across the sample set, initial rates between enzyme variants can be compared. In this instance, the linear range for production of product occurs in one hour. Enzyme variants with faster initial rates deliver a higher product yield in one hour than variants with slower initial rates produce at the same time-period. In some cases, improvements to initial rates also deliver a more productive variant. In some cases, improvements to initial rates result in faster decay of the enzyme variant reducing overall enzymatic productivity. Productivity and rate may be assessed as described in Example 2.
(§2) Table 6 depicts variants of Streptomyces mobaraensis Tgase and improvement to productivity and/or rate relative to wild-type Tgase (SEQ ID NO. 2) as determined in Example 3. Numbering of amino acid positions is in reference to the mature S. mobaraensis Tgase sequence depicted in SEQ ID NO. 2. A “−” indicates a reduction in activity. A “+” indicates an improvement between 1.2 and 2-fold. A “++” indicates an improvement between 2 and 5-fold. A “+++” indicates an improvement greater than 5-fold.
To evaluate productivity, total product formed was measured after 24-hours of incubation, using the assay described in Example 4B. The time is defined as 24 hours which represents approaching or surpassing burnout, denaturation, or self-reaction of the enzyme variant.
(§3) Protein functionalization by Tgase variants was determined by the fluorogenic labeling of casein using monodansylcadaverine (e.g., a commercially available kit such as the Transglutaminase Fluorogenic Activity Assay Kit, T036, Zedira, Germany). Tgase activity was monitored by measuring fluorescence (excitation wavelength 332 nm; emission wavelength 500 nm) using a BioTek Synergy H1 microplate reader. Transglutaminase-catalyzed covalent coupling (crosslinking) of monodansylcadaverine with N,N-dimethylcasein produces a product that causes a shift in intensity and wavelength of fluorescence of the dansyl group now linked to the casein. The relative transglutaminase activity is shown by increase of fluorescence intensity over time. Enzyme variant loading was optimized based on expression levels, ensuring enzyme was the rate limiting factor. Briefly, cell-free reactions (set up as described in Example 2A) were first diluted 10-fold using phosphate buffer, pH 7.4, and a 5 microliter aliquot was analyzed.

Data set [3] concerns N,N-dimethylcasein. Description: Rate of product formation over 60 minutes (protein functionalization assay). The class given is biochemical. Also noted: key: −: a reduction in activity; +: an improvement between 1.2 and 2-fold; ++: an improvement between 2 and 5-fold; +++: an improvement greater than 5-fold. The conditions noted are these: improvement relative to wild-type Tgase (SEQ ID NO: 2); initial rate over 60 min. The procedure: as §1, §2
Rate was assessed by measuring the rate of product formation over 60 minutes of incubation using a kinetic method to take scans every 60 seconds to determine product formation, using reaction conditions as described in Example 4B. The enzyme produces product at an initial rate that is approximately linear for the first one hour of the reaction. The concentrations of enzyme and substrate are the same across the sample set for each enzyme variant. Enzyme variants with faster initial rates deliver a higher product yield in one hour than variants with slower initial rates produce at the same time-period.
as §3

`[H]/N=C(\N/C(=N/[H])NCCCCCCNC(=N)NC(=N)Nc1ccc(Cl)cc1)Nc1ccc(Cl)cc1` [Chlorhexidine, reference compound]: the minimum inhibitory concentration (MIC) in data set [1] (read-out: Co-Dosant MIC, without Tgase variant) came out at 2 µg/mL. The “Co-Dosant MIC, with Tgase variant” value in data set [1] amounted to 1 ppm.

Turning to Polymyxin B [reference compound], the “Co-Dosant MIC, with Tgase variant” value in data set [1] is listed as 0.156 ppm. In addition, in data set [1] (without Tgase variant), the “Co-Dosant MIC, without Tgase variant” value was found to be 0.625 ppm.

B1: A16: Tgase variant S2P D18T Q50S Q74A K91H Q124L S131R V132L K151R K152R N282M G283A relative to SEQ ID NO: 2 (protein, UniProt P81453 77-407, looked up, variant S2P D18T Q50S Q74A K91H Q124L S131R V132L K151R K152R N282M G283A)
Protein-glutamine …: DPDDRVTPPAEPLDRMPTPYRPSYGRAETVVNNYIRKWQQVYSHRDGRKSQMTEEQREWLSYGCVGVTWVNSGAYPTNRLAFASFDEDRFHNELKNGRPRSGETRAEFEGRVAKESFDEEKGFLRAREVARLMNRALENAHDESAYLDNLRRELANGNDALRNEDARSPFYSALRNTPSFKERNGGNHDPSRMKAVIYSKHFWSGQDRSSSADKRKYGDPDAFRPAPGTGLVDMSRDRNIPRSPTSPGEGFVNFDYGWFGAQTEADADKTVWTHGNHYHAPMASLGAMHVYESKFRNWSEGYSDFDRGAYVITFIPKSWNTAPDKVKQGWP
Consider B1, for which the Productivity entry in the data set on N,N-dimethylcasein [2] was “−”. In addition, the Rate result with N,N-dimethylcasein [3] was “++ (an improvement between 2 and 5-fold)”.

B2: A18: Tgase variant S2P Q50S Q51A Q74A K91H Q124L K151R K152R N282M G283A H289I relative to SEQ ID NO: 2 (protein, UniProt P81453 77-407, looked up, variant S2P Q50S Q51A Q74A K91H Q124L K151R K152R N282M G283A H289I)
Protein-glutamine …: B1 Protein-glutamine … with T18D, Q51A, R131S, L132V, H289I
For the molecule B2, the Productivity result in the data set on N,N-dimethylcasein [2] is given as “−”. The Rate entry with N,N-dimethylcasein [3] is “+ (an improvement between 1.2 and 2-fold)”.

B3: A2: Tgase variant S2P Q50S Q74A K91H Q124L K151R K152R N282E S284A relative to SEQ ID NO: 2 (protein, UniProt P81453 77-407, looked up, variant S2P Q50S Q74A K91H Q124L K151R K152R N282E S284A)
Protein-glutamine …: B1 Protein-glutamine … with T18D, R131S, L132V, M282E, A283G, S284A
On to B3, for which the Productivity entry with N,N-dimethylcasein [2] is given as “−”. The Rate entry in the data set on N,N-dimethylcasein [3] was “+ (an improvement between 1.2 and 2-fold)”.

B4: A1: Tgase variant S2P Q50S Q74A K91H Q124L K151R K152R N282R relative to SEQ ID NO: 2 (protein, UniProt P81453 77-407, looked up, variant S2P Q50S Q74A K91H Q124L K151R K152R N282R)
Protein-glutamine …: B1 Protein-glutamine … with T18D, R131S, L132V, M282R, A283G
As to B4, the Productivity entry with N,N-dimethylcasein [2] was “+ (an improvement between 1.2 and 2-fold)”. The Rate entry in the data set on N,N-dimethylcasein [3] is recorded as “−”.

B5: A17: Tgase variant S2P D14N Q50S Q74A K91H Q124L K151R K152R N282M G283A relative to SEQ ID NO: 2 (protein, UniProt P81453 77-407, looked up, variant S2P D14N Q50S Q74A K91H Q124L K151R K152R N282M G283A)
Protein-glutamine …: B1 Protein-glutamine … with D14N, T18D, R131S, L132V
In the case of B5, the Productivity entry in the data set on N,N-dimethylcasein [2] was “−”. For the same molecule, in the data set with N,N-dimethylcasein [3], the Rate entry was “+ (an improvement between 1.2 and 2-fold)”.

The values above are taken from US20260327578A1, “TRANSGLUTAMINASES AND USES THEREOF” (CURIE CO. INC., priority 2023, published 2026).
